Assay results taken from patent US6743893B2, “Receptor-mediated uptake of peptides that bind the human transferrin receptor” (The UAB Research Foundation, priority 2000, dated 2004).
Values belong to the substance of their own block, whether it stands above or below them.

Tests used:
[1] = molecular target: T1, human transferrin receptor (hTfR) (Homo sapiens, UniProt P02786); experiment: Competition studies of phage binding to CEF+hTfR cells; settings: competitor added prior to phage, 1 hour at 4° C.
T1 construct: expressed in transfected cells; host or cells: chicken embryo fibroblasts (CEF+hTfR), stably transduced with a retroviral vector
T1 sequence (P02786 whole entry): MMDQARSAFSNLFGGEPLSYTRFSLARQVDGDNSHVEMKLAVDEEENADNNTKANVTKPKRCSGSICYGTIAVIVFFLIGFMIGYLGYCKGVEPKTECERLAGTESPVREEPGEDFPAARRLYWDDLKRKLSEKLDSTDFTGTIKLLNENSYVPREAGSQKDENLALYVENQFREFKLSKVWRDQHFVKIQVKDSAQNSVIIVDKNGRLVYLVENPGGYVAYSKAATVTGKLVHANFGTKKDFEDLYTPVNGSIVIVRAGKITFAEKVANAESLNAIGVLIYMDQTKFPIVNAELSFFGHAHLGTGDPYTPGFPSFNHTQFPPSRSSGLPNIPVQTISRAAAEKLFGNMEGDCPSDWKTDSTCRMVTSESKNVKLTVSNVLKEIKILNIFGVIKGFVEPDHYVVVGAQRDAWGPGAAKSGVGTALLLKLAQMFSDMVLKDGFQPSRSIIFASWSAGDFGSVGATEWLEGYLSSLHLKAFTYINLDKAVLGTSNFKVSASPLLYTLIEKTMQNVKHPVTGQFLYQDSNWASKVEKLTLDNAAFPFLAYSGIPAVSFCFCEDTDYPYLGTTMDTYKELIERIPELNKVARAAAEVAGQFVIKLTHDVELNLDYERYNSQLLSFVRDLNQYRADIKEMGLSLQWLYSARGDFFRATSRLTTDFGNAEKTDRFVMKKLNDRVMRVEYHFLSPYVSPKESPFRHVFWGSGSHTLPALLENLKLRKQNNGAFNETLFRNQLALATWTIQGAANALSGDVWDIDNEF
Experimental: Binding and Competition Studies: Purified phage populations were amplified and were verified to be homogenous through DNA sequencing. Cells were prepared for binding as was described for biopanning procedures. Preparations of plaque-purified and titered phage (1×10^11) were incubated in serum-free Opti-MEM on either CEF or CEF+hTfR cells at 4° C. for 1 hour. The cells were washed repeatedly with Opti-HEM and bound phage were eluted with low pH buffer and subsequently titered. In competition studies, holo-transferrin (Calbiochem, La Jolla, Calif.) or synthesized peptides were added to CEF+hTfR cells prior to addition of the phage for 1 hour at 4° C. Multiple trials were completed and average titers and standard deviations determined. The titers determined on CEF+hTfR cells were divided by the titers determined on CEF cells and multiplied by 100 to yield fold over control data points.
Due to a synthesis error, a peptide with the sequence HAIYPNH (Seq. ID No. 14) was also synthesized.

CEF+hTfR cells = experiment: Immunofluorescence binding and internalization on CEF+hTfR cells; assay type: cell-based, chicken; settings: for endocytosis into CEF+hTfR cells (fluorescence after low pH buffer wash): 37° C., low pH buffer wash before fixation
Experimental: Immunofluorescence: CEF+hTfR cells were grown on glass coverslips to 50% to 75% confluence. The coverslips were washed and incubated in serum-free Opti-MEM media at 37° C. for 1 hour. […] Cells were washed with Opti-MEM, then fixed in 3% formaldehyde for 30 minutes at 4° C. Alternatively, the cells were acid-washed with 0.2 M glycine-HCl, Ph 2.2, prior to fixation. A GFP monoclonal antibody (Clontech) was used in conjunction with an Oregon-Green Goat Anti-Mouse (Molecular Probes) to augment GFP fluorescence. All slides were counterstained with DAPI (2(4Amidinophenyl)-6indole carbamidinedihydrochioride) (Sigma). The microscopic slides were mounted in Prolong™ antifade medium (Molecular Probes). Images were captured on an AX70 microscope with Olympus Camera (Olympus, Melville, N.Y.) and analyzed with ESPRIT software (Life Science Resources, Cambridge, England). Final figures were assembled using Microsoft Power Point (Microsoft Corp., Redmond, Wash.).
To evaluate the sufficiency of capacity of the peptides to mediate uptake of carrier protein, GFP fusion proteins were prepared. Immunofluorescence was used to determine if the GFP-peptides fusion constructs were internalized using the following assay. GFP-peptide constructs were cloned with a C-terminal peptide addition of either HAIYPRH (Seq. ID No. 1) (GFP-HAIYPRH) or […] (Seq. ID No. 2) (GFP-[…]). These constructs were expressed and purified to greater than 95% by Coomassie staining. Purified proteins were applied to CEF+hTfR cells at 4° C. (which prevents endocytosis) or at 37° C. […] This acid wash determined whether the protein was endocytosed by removing proteins bound at the cell surface. […]
Immunofluorescence images of the localization of various proteins applied to CEF+hTfR cells at either 4° C. or 37° were studied. […] The total fluorescence shown could result from both cell surface and endocytosed proteins.
The cells that had undergone a low pH buffer wash to enable identification of proteins that had been endocytosed were evaluated.

CEF cells = experiment: Immunofluorescence binding assays on CEF cells; assay type: cell-based, chicken; settings: 4° C. or 37° C., CEF cells lack the hTfR
[2] = molecular target: T1, human transferrin receptor (hTfR); experiment: Scatchard analysis of 125I-labelled protein binding to CEF+hTfR cells; settings: CEF+hTfR cells on ice, 1 hour, read-out: binding affinity (Scatchard)
Experimental: 1M NaOH was added to lyse the cells for determining the bound fraction. Both unbound and bound fractions were counted in a gamma counter and binding affinities were determined using Scatchard analysis.
Serial dilutions of labelled proteins were incubated with CEF+hTfR cells on ice in PBS-0.1% BSA in duplicate wells. After 1 hour, the unbound fraction was removed and cells were washed four times. Cells were removed from the well with 1N NaOH. The unbound and bound fractions were counted in a gamma counter and fmoles of bound and unbound were calculated. Scatchard plots were derived by plotting bound versus bound/free of an average value generated by the duplicate wells. A best of fit line was generated using the Excel program (Microsoft Corp.) and the binding affinities were determined by the slope of the plotted lines.

- competition of HAIYPRH phage binding to CEF+hTfR cells by added peptide or Tf [1]: no effect
Substance: HAIYPNH [peptide synthesized due to a synthesis error, asparagine in place of arginine]

- competition of HAIYPRH phage binding to CEF+hTfR cells by added peptide or Tf [1]: competed away to background levels
- competition of THRPPMWSPVWP phage binding to CEF+hTfR cells by added peptide or Tf [1]: failed to significantly compete
Substance: HAIYPRH

- competition of THRPPMWSPVWP phage binding to CEF+hTfR cells by added peptide or Tf [1]: not by the scrambled 12-mer sequence
Substance: PWRPSHPVWMPT

- competition of HAIYPRH phage binding to CEF+hTfR cells by added peptide or Tf [1]: failed to significantly compete
Substance: THRPPMWSPVWP

Substance: Texas-Red Tf: Tf conjugated to the Texas-Red fluorochrome, positive control
- endocytosis into CEF+hTfR cells (fluorescence after low pH buffer wash) (CEF+hTfR cells): readily endocytosed

Substance: Tf: transferrin from human serum, native ligand of hTfR
- binding or internalization on CEF cells (CEF cells): neither of the GFP fusion proteins or transferrin bound or internalized

- Kd [2]: 240 µM
Substance: wtGFP: purified wild-type green fluorescent protein, negative control
- localization/binding of protein on CEF+hTfR cells without acid wash (CEF+hTfR cells; 37° C. for one hour, no acid wash): minimal binding
- endocytosis into CEF+hTfR cells (fluorescence after low pH buffer wash) (CEF+hTfR cells): unable to be endocytosed
